Test results as given in patent US6344189B1, “Use of protease inhibitors for treating skin wounds” (Biotech Australia Pty., Ltd., priority 1998, dated 2002).
Entries after “also recorded” stand apart in the source; their conditions may differ. Where two headings read alike, the source gives them in different places. Where a SMILES comes first, the peptide text is derived from it. [ ]: non-standard residue; d: D form. The star is where a group is joined. Sta = CC(C)C[C@H](N)[C@@H](O)CC(=O)O; Isovaleryl = CC(C)CC(=O)*

Tests used:
[1] = test system: protease activity in wound fluid; assay: Inhibition of protease activity in wound fluid in vitro, substrate ZGGRAMC, fluorescence at 460 nm; format: biochemical, patients
Experimental: Wound fluid was collected from patients with chronic venous leg ulcers, and incubated in vitro in the presence or absence of each inhibitor along with the protease substrate ZGGRAMC. Cleavage of this substrate indicated protease activity, which was detected by fluorescence at 460 nm. Lack of fluorescence indicated inhibition of protease activity.
Conditions were as described above for single inhibitors.

[2] = PAI-2 antigen level by ELISA and Western blot in wound fluid and blood samples; format: in vivo, patients; conditions: for level of PAI-2 in wound fluid: first visit
Experimental: (§1) In addition, wound fluid was collected on the first day before addition of test solution, and 2 hr, 4 hr, and 6 hr afterwards. Wound fluid collection was also made on days 2, 3, 4, and 5 (before test solution addition) and day 29. Blood samples were taken on day 1 at 0 (before), 0.5 hr, 1 hr, and 2 hr after the test solution, and also at day 5. A punch biopsy was taken for histochemical examination of the ulcer edge on day 5.
(§2) All wound fluid samples were analyzed for uPA activity by the Chromolise assay, and for total protein by the Bradford assay. If sufficient wound fluid was available, the following assays were also performed, in order of priority: (i) PAI-2 antigen level, by ELISA; (ii) a Western blot to detect whether the PAI-2 molecule was intact, complexed, or in fragments; (iii) total protease activity, determined by a chromogenic assay using azo-casein as substrate, and (iv) total protease activity in the presence of EDTA (to block metalloproteases) or aprotinin (to block plasmin). In addition, blood samples were analyzed by PAI-2 ELISA (0, 0.5, 1, 2 hr on day 1) and analyzed for FBC and clinical chemistry on day 1(0) and day 5.
(§3) The ELISA used for PAI-2 detected both glycosylated and non-glycosylated PAI-2, and both complexed (with uPA or tPA) and uncomplexed PAI-2. Insufficient wound fluid was obtained for total protease assays in the presence of aprotinin or EDTA. The variation in ulcer volume measurements by structured light assessment was very large:—20.4% on repeated measurements, so those data could not be used to judge small changes in ulcer volume.

[3] = PAI-2 release from gel in two compartment vessel with microporous membrane; format: physicochemical; conditions: cellulose gel, presence of Tween80, FIG. 4
Text: In these experiments, the PAI-2 containing gel was placed in the top chamber of a two compartment vessel. The bottom chamber contained buffer, and the two chambers were separated by a microporous membrane. The appearance of PAI-2 in the lower chamber indicated PAI-2 release from the gel, and was monitored by assays for PAI-2 activity.

uPA [4] = assay: uPA activity in patients' wound fluid by Chromolise assay; format: in vivo
Experimental: as §1, §2, §3

[5] = test system: chronic venous leg ulcers; assay: Double blind placebo controlled randomized trial of topical PAI-2, ulcer area by tracing; format: in vivo, patients; conditions: PAI-2 20 μg per cm^2 topical, five consecutive days; 29-day course; compared with placebo
Text: The study was a double blind placebo controlled randomized trial. A stratified randomization was utilized according to ulcer size. Patients with ulcers less than, and greater than, 20 cm^2 were randomized separately. No minimum or maximum times were set for the patients' current ulcer episode. Minimum and maximum ulcer areas were 2 cm^2 and 50 cm^2, and a patient's resting ankle brachial doppler arterial pressure index for inclusion was equal to or greater than 0.80.
All patients received compression bandaging. The area of the ulcer was determined by tracing, and the test solution, either PAI-2 at 1.0 mg/ml in phosphate buffered saline, pH 7.0, or buffer alone, was applied at 20 μl (20 ,μg in the case of PAI-2) per cm^2. The patient was asked to lie recumbent on the examination couch while the test solution was applied to the surface of the wound, and to remain there for 15 minutes before bandaging was applied.
(§4) Test solution was applied in this manner for five consecutive days. This was followed by visits on days 15, 22, and 29. Ulcer area determination was made on days 1, 5, 15, 22, and 29, ulcer volume was measured by structured light assessment on days 1, 5, and 29, and the ulcer was photographed on days 1, 5, and 29. Adverse events were assessed at each visit, as were concomitant medications.

[6] = Stability of PAI-2 in wound fluid; format: in vitro ADME; conditions: 3-hour period, FIG. 1
Experimental: (§5) It also is apparent that the inhibitors must be stable in the wound fluid to be effective in aiding wound healing. In the context of the present invention, an inhibitor is suitably stable when it retains at least 50% of its activity after exposure to wound fluid for 3 hours. In this regard, therefore, it is particularly desirable to use an inhibitor that inhibits uPA and is stable in wound fluid.

uPA [7] = target: T1, uPA (Homo sapiens, UniProt P00749); assay: Addition of PAI-2 to wound fluid, uPA activity; format: biochemical; conditions: PAI-2 added to wound fluid
T1 construct: from tissue; host or cells: wound fluid
Experimental: as §5

[8] = Adverse events and histological examination of ulcer edge biopsies; format: in vivo, patients
Experimental: as §4, §1
Histological examination was performed on biopsies taken at visit 5 after staining with hematoxylin and eosin. […] This effect is likely to be beneficial to the ulcer.

[9] = test system: total protease activity in wound fluid; assay: Total protease activity in wound fluid, chromogenic assay with azo-casein substrate; format: in vivo, patients; conditions: ng/ml of wound fluid or ng/mg protein
Experimental: as §2

[10] = single inhibitors, wound fluid of chronic venous leg ulcers

For `N=C(N)NC(=O)c1nc(Cl)c(N)nc1N` [Amiloride], the “Percent Inhibition” value [1, 10] was 96%.

For `O=C(O)CN(CCN(CC(=O)O)CC(=O)O)CC(=O)O` [EDTA, ethylene diamine tetraacetic acid], the “Percent Inhibition” value [1, 10] was 0%.

With “glutamic acid-glycine-arginine chloromethyl ketone [EGRCK]” the “Percent Inhibition” value [1] was 94%.

With `CCN1C(=O)C=CC1=O` [NEM, N-ethyl maleimide] the “Percent Inhibition” value [1, 10] was 21%.

In the case of `CC(C)CC(=O)N[C@H](C(=O)N[C@H](C(=O)N[C@@H](CC(C)C)[C@@H](O)CC(=O)N[C@@H](C)C(=O)N[C@@H](CC(C)C)[C@@H](O)CC(=O)O)C(C)C)C(C)C` [Pepstatin] (Isovaleryl-VV[Sta]A[Sta]-OH), the “Percent Inhibition” value [1, 10] is reported as 0%.

B1: plasminogen activator inhibitor 2 (protein, UniProt P05120 1-415, looked up)
Plasminogen activator …: MEDLCVANTLFALNLFKHLAKASPTQNLFLSPWSISSTMAMVYMGSRGSTEDQMAKVLQFNEVGANAVTPMTPENFTSCGFMQQIQKGSYPDAILQAQAADKIHSSFRSLSSAINASTGNYLLESVNKLFGEKSASFREEYIRLCQKYYSSEPQAVDFLECAEEARKKINSWVKTQTKGKIPNLLPEGSVDGDTRMVLVNAVYFKGKWKTPFEKKLNGLYPFRVNSAQRTPVQMMYLREKLNIGYIEDLKAQILELPYAGDVSMFLLLPDEIADVSTGLELLESEITYDKLNKWTSKDKMAEDEVEVYIPQFKLEEHYELRSILRSMGMEDAFNKGRANFSGMSERNDLFLSEVFHQAMVDVNEEGTEAAAGTGGVMTGRTGHGGPQFVADHPFLFLIMHKITNCILFFGRFSSP
For B1, the “intact PAI-2 in wound fluid, Western blot” value ([2]; 2 hr) was “significant amounts of intact PAI-2”, the “level of PAI-2 in wound fluid” value ([2]; 2 hr after topical application) was “increased dramatically” and the “level of PAI-2 in wound fluid” value ([2]; 4 hr after topical application) was “declined almost to baseline”. The “systemic distribution of topically applied PAI-2” value ([2]; blood samples, PAI-2 ELISA) was “No evidence of systemic distribution”, the “release of PAI-2 from gel” value [3] was “enhanced release” and the “specific activity of uPA (ng/mg of total protein in wound fluid)” value (uPA [4]; first day of PAI-2 administration, relative to placebo group) was “declined over 6 hrs”. The “difference in uPA between the two groups expressed as units/ml of wound fluid” value (uPA [4]; per ml of wound fluid rather than per mg total protein) was “not apparent”, the “uPA activity in wound fluid” value (uPA [4]; subsequent days over the course of the study, PAI-2 vs placebo) was “no significant difference” and the ulcer area [5] was “significant decrease in the area of leg ulcers compared to controls; also recorded: a reduction in the ulcer area”. The “stability in wound fluid” value [6] was “relatively stable in wound fluid”, the “uPA activity in wound fluid” value (uPA [7]) was “caused the inhibition of uPA activity” and the “damage to the tissue, histological examination” value ([8]; biopsies at visit 5, hematoxylin and eosin) was “No evidence of damage to the tissue”. The systemic toxicity ([8]; in vivo) was “does not appear to have systemic toxicity”, the adverse events ([8]; topical PAI-2, chronic leg ulcers, course of the study) was “none of the adverse events was deemed related to the PAI-2 treatment” and the total protease activity [9] was “did not appear to be altered”.
